The values that follow come from patent US20110008326A1 (published 2011).

The experiment addresses T1, Human, recombinant IL-4R-Fc protein (human, UniProt P24394 26-232).
T1 construct: also called immobilized receptor
T1 sequence: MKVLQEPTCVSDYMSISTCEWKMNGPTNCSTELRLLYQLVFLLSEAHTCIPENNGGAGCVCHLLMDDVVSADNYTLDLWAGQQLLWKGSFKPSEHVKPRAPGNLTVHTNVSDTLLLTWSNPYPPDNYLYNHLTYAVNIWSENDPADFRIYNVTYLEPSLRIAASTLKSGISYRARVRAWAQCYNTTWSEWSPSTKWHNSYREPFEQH
The experiment in a line: competition ELISA on IL-4R-Fc coated plates; competitor: 10 ng/ml mouse antibody X2/45. On the technique in general: ELISA stands for enzyme-linked immunosorbent assay.

Description: Human, recombinant IL-4R-Fc protein was immobilized on ELISA plates at 100 ng/well followed by blocking of free binding sites.

B1: humanised anti-IL-4R antibody (variable regions SEQ ID NOs: 13 and 14) (antibody, V domains shown)
VH: EVQLVESGGGLVKPGGSLRLSCAASGFTFNTNAMNWVRQAPGKGLEWVARIRSKSNNYATYYADSVKDRFTLSRDDSKNTLYLQMNSLKTEDTAVYYCTRDRGWGAMDYWGQGTTVTVSS
VL: DIQMTQSPSSLSASVGDRVTITCSASQDINNYLNWYQQKPGKAPKLLIYYTSSLHSGVPSRFSGSGSGTDFTLTISSLQPEDFATYYCQQFSNLPWTFGGGTKLEIK
notes: Full length antibody made in Hek 293T cells; light chain of kappa type; also called humanised antibody; humanised version of X2/45
In the case of B1, the binding result is reported as “binds”.
